Data as given in IntAct's records for PubMed 35512704.

B1: Speckle-type POZ protein (Homo sapiens), O43791 (parent)
chain: MSRVPSPPPPAEMSSGPVAESWCYTQIKVVKFSYMWTINNFSFCREEMGEVIKSSTFSSGANDKLKWCLRVNPKGLDEESKDYLSLYLLLVSCPKSEVRAKFKFSILNAKGEETKAMESQRAYRFVQGKDWGFKKFIRRDFLLDEANGLLPDDKLTLFCEVSVVQDSVNISGQNTMNMVKVPECRLADELGGLWENSRFTDCCLCVAGQEFQAHKAILAARSPVFSAMFEHEMEESKKNRVEINDVEPEVFKEMMCFIYTGKAPNLDKMADDLLAAADKYALERLKVMCEDALCSNLSVENAAEILILADLHSADQLKTQAVDFINYHASDVLETSGWKSMVVSHPHLVAEAYRSLASAQCPFLGPPRKRLKQS

Variants of: B1
Details: with nox1_human NOX1, Q9Y5S8
Chain of nox1_human NOX1, Q9Y5S8 (Q9Y5S8 whole entry): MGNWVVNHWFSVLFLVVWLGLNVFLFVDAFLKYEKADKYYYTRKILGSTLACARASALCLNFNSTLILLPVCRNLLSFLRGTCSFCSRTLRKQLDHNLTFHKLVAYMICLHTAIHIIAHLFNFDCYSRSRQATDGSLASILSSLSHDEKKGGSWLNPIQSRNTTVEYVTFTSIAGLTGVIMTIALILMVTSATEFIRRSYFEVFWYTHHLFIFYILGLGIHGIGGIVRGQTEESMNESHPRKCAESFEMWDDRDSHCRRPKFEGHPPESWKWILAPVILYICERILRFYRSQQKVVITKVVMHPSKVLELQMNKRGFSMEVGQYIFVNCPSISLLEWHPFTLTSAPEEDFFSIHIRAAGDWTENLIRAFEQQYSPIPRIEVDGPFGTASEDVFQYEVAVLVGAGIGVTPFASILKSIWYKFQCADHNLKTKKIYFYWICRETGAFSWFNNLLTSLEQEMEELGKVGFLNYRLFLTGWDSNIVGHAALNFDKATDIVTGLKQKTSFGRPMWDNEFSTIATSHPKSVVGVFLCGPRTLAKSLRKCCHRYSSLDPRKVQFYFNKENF

effect of a mutation on the interaction | Variant
with no effect | Y87C

Variants of: B1
Details: with ntrk2_human NTRK2, Q16620

effect of a mutation on the interaction | Variant
with no effect | Y87C

Variants of: B1
Details: with ntrk3_human NTRK3, Q16288

effect of a mutation on the interaction | Variant
with no effect | Y87C

Variants of: B1
Details: with pak3_human PAK3, O75914

effect of a mutation on the interaction | Variant
with no effect | Y87C

Variants of: B1
Details: with prkn_human PRKN

effect of a mutation on the interaction | Variant
with no effect | Y87C

Variants of: B1
Details: with pb1_human PBRM1, Q86U86
Chain of pb1_human PBRM1, Q86U86 (Q86U86 whole entry): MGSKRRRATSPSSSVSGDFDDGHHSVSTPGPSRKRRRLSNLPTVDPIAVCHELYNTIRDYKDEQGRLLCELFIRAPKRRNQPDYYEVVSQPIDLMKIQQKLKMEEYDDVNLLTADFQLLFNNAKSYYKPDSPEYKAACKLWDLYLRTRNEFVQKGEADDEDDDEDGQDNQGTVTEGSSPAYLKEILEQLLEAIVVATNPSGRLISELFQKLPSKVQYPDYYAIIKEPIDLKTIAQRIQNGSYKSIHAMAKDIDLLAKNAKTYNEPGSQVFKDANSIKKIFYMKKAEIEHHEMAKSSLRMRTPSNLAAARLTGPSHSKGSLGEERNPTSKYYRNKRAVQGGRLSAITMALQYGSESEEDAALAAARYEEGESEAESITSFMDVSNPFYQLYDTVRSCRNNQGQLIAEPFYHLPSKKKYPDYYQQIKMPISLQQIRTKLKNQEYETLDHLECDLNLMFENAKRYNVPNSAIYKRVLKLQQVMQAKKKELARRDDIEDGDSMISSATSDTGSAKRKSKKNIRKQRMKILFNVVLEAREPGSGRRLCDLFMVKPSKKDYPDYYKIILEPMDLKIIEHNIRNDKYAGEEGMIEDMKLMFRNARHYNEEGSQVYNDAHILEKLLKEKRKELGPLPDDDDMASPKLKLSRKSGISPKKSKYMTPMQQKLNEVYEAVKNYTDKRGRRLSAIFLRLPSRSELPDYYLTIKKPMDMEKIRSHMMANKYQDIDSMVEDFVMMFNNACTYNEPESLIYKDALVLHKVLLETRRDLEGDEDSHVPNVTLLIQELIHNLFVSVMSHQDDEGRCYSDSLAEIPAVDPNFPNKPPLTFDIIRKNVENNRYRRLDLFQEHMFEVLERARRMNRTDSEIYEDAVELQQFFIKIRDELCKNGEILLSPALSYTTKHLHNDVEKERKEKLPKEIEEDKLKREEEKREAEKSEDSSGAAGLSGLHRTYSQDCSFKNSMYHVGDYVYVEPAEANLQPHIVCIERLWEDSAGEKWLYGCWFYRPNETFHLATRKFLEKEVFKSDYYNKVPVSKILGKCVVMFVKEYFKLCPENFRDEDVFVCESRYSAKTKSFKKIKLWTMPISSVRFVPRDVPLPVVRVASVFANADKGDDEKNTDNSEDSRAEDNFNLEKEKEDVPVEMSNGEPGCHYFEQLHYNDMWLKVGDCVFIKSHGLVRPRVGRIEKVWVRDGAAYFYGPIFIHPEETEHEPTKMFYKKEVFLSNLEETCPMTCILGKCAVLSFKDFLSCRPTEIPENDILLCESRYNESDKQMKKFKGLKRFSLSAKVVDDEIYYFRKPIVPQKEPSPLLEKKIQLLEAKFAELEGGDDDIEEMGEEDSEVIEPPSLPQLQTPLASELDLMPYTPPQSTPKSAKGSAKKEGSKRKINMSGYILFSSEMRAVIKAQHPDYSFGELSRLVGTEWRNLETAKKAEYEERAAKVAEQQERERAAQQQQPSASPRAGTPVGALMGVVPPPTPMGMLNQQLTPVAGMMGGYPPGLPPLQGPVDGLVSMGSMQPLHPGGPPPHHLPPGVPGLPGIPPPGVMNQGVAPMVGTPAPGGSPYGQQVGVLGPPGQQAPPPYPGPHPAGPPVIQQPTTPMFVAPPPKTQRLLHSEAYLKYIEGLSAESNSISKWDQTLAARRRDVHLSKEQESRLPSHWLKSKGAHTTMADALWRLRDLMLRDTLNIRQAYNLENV

effect of a mutation on the interaction | Variant
with no effect | Y87C

Variants of: B1
Details: with pcbp1_human PCBP1, Q15365

effect of a mutation on the interaction | Variant
with no effect | Y87C

Variants of: B1
Details: with pdcd1_human PDCD1, Q15116

effect of a mutation on the interaction | Variant
with no effect | Y87C

Variants of: B1
Details: with pgfrb_human PDGFRB

effect of a mutation on the interaction | Variant
with no effect | Y87C

Variants of: B1
Details: with pdk1_human PDK1, Q15118

effect of a mutation on the interaction | Variant
with no effect | Y87C

Variants of: B1
Details: with PIK3C2B

effect of a mutation on the interaction | Variant
with no effect | Y87C

Variants of: B1
Details: with pk3cb_human PIK3CB

effect of a mutation on the interaction | Variant
with no effect | Y87C

Variants of: B1
Details: with pk3cg_human PIK3CG

effect of a mutation on the interaction | Variant
with no effect | Y87C

Variants of: B1
Details: with p85b_human PIK3R2, O00459
Chain of p85b_human PIK3R2, O00459 (O00459 whole entry): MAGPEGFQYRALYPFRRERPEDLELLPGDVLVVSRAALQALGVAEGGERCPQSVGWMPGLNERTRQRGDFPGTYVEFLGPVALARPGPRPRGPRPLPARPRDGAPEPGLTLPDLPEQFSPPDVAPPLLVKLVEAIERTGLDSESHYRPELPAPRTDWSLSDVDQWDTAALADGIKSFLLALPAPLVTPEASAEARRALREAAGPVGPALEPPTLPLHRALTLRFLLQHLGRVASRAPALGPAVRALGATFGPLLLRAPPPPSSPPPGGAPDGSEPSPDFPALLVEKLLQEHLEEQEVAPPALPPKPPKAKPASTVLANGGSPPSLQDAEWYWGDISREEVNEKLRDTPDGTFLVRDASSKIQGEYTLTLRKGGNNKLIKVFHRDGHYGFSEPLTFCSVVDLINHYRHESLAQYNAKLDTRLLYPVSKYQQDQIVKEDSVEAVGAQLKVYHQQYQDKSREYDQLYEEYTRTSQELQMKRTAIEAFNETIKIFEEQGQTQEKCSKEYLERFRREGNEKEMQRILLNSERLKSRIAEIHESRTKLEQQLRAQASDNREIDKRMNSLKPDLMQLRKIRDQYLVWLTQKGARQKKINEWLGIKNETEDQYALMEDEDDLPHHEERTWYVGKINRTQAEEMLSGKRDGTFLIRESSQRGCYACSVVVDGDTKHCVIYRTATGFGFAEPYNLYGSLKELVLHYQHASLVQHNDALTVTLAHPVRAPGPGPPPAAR

effect of a mutation on the interaction | Variant
with no effect | Y87C

Variants of: B1
Details: with dpod1_human POLD1, P28340

effect of a mutation on the interaction | Variant
with no effect | Y87C

Variants of: B1
Details: with dpoe1_human POLE

effect of a mutation on the interaction | Variant
with no effect | Y87C

Variants of: B1
Details: with ppard_human PPARD

effect of a mutation on the interaction | Variant
with no effect | Y87C

Variants of: B1
Details: with prdm1_human PRDM1, O75626

effect of a mutation on the interaction | Variant
with no effect | Y87C

Variants of: B1
Details: with prex2_human PREX2, Q70Z35

effect of a mutation on the interaction | Variant
with no effect | Y87C

Variants of: B1
Details: with aapk2_human PRKAA2, P54646

effect of a mutation on the interaction | Variant
with no effect | Y87C

Variants of: B1
Details: with prss8_human PRSS8, Q16651

effect of a mutation on the interaction | Variant
with no effect | Y87C

Variants of: B1
Details: with ptk6_human PTK6, Q13882

effect of a mutation on the interaction | Variant
with no effect | Y87C

Variants of: B1
Details: with tf65_human RELA

effect of a mutation on the interaction | Variant
with no effect | Y87C

Variants of: B1
Details: with rictr_human RICTOR

effect of a mutation on the interaction | Variant
with no effect | Y87C

Variants of: B1
Details: with rnf43_human RNF43, Q68DV7

effect of a mutation on the interaction | Variant
with no effect | Y87C

Variants of: B1
Details: with ros1_human ROS1, P08922

effect of a mutation on the interaction | Variant
with no effect | Y87C

Variants of: B1
Details: with rl11_human RPL11, P62913

effect of a mutation on the interaction | Variant
with no effect | Y87C

Variants of: B1
Details: with rl5_human RPL5, P46777

effect of a mutation on the interaction | Variant
with no effect | Y87C

Variants of: B1
Details: with rs15_human RPS15, P62841

effect of a mutation on the interaction | Variant
with no effect | Y87C

Variants of: B1
Details: with rs2_human RPS2, P15880

effect of a mutation on the interaction | Variant
with no effect | Y87C

Variants of: B1
Details: with rptor_human RPTOR

effect of a mutation on the interaction | Variant
with no effect | Y87C

Variants of: B1
Details: with rxra_human RXRA

effect of a mutation on the interaction | Variant
with no effect | Y87C

Variants of: B1
Details: with sdha_human SDHA

effect of a mutation on the interaction | Variant
with no effect | Y87C

Variants of: B1
Details: with setbp_human SETBP1, Q9Y6X0

effect of a mutation on the interaction | Variant
with no effect | Y87C

Variants of: B1
Details: with setb1_human SETDB1, Q15047

effect of a mutation on the interaction | Variant
with no effect | Y87C

Variants of: B1
Details: with skp2_human SKP2, Q13309

effect of a mutation on the interaction | Variant
with no effect | Y87C

Variants of: B1
Details: with smad1_human SMAD1, Q15797
Chain of smad1_human SMAD1, Q15797 (Q15797 whole entry): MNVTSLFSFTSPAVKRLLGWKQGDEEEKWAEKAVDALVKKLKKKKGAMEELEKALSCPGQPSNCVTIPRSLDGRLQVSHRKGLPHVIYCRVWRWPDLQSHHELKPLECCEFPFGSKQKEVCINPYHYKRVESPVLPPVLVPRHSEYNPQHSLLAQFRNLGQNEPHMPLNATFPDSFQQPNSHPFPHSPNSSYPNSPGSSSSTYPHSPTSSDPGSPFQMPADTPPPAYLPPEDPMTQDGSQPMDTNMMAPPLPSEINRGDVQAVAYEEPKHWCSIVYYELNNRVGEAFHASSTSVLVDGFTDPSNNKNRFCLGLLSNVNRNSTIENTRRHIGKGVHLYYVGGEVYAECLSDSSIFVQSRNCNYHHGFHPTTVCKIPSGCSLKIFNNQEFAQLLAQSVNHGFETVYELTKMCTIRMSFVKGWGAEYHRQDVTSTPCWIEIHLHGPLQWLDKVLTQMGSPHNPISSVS

effect of a mutation on the interaction | Variant
with no effect | Y87C

Variants of: B1
Details: with smca4_human SMARCA4, P51532

effect of a mutation on the interaction | Variant
with no effect | Y87C

Variants of: B1
Details: with snf5_human SMARCB1, Q12824

effect of a mutation on the interaction | Variant
with no effect | Y87C

Variants of: B1
Details: with smo_human SMO

effect of a mutation on the interaction | Variant
with no effect | Y87C

Variants of: B1
Details: with smuf1_human SMURF1, Q9HCE7

effect of a mutation on the interaction | Variant
with no effect | Y87C

Variants of: B1
Details: with socs1_human SOCS1, O15524
Chain of socs1_human SOCS1, O15524 (O15524 whole entry): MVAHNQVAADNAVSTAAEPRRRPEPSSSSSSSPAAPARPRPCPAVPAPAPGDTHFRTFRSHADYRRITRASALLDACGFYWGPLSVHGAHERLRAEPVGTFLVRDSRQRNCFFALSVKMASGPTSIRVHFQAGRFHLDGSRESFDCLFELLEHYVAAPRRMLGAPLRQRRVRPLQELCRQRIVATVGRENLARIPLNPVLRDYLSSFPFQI

effect of a mutation on the interaction | Variant
with no effect | Y87C

Variants of: B1
Details: with sox10_human SOX10, P56693

effect of a mutation on the interaction | Variant
with no effect | Y87C

Variants of: B1
Details: with sox2_human SOX2, P48431

effect of a mutation on the interaction | Variant
with no effect | Y87C

Variants of: B1
Details: with src_human SRC

effect of a mutation on the interaction | Variant
with no effect | Y87C

Variants of: B1
Details: with whr1_human WHR1, P49842
Chain of whr1_human WHR1, P49842 (P49842 whole entry): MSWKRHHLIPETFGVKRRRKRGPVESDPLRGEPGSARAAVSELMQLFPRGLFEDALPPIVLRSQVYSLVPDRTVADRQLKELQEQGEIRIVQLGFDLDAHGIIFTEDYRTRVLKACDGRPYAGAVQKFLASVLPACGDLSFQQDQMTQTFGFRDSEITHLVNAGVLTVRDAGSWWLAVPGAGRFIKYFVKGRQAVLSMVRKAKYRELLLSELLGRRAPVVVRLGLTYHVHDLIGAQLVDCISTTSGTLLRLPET

effect of a mutation on the interaction | Variant
with no effect | Y87C

Variants of: B1
Details: with stk38_human STK38, Q15208

effect of a mutation on the interaction | Variant
with no effect | Y87C

Variants of: B1
Details: with eloc_human ELOC

effect of a mutation on the interaction | Variant
with no effect | Y87C

Variants of: B1
Details: with tfe2_human TCF3, P15923

effect of a mutation on the interaction | Variant
with no effect | Y87C

Variants of: B1
Details: with tead1_human TEAD1, P28347

effect of a mutation on the interaction | Variant
with no effect | Y87C

Variants of: B1
Details: with tead3_human TEAD3, Q99594

effect of a mutation on the interaction | Variant
with no effect | Y87C

Variants of: B1
Details: with tead4_human TEAD4, Q15561

effect of a mutation on the interaction | Variant
with no effect | Y87C

Variants of: B1
Details: with tet2_human TET2, Q6N021

effect of a mutation on the interaction | Variant
with no effect | Y87C

Variants of: B1
Details: with tgfr2_human TGFBR2, P37173
Chain of tgfr2_human TGFBR2, P37173 (P37173 whole entry): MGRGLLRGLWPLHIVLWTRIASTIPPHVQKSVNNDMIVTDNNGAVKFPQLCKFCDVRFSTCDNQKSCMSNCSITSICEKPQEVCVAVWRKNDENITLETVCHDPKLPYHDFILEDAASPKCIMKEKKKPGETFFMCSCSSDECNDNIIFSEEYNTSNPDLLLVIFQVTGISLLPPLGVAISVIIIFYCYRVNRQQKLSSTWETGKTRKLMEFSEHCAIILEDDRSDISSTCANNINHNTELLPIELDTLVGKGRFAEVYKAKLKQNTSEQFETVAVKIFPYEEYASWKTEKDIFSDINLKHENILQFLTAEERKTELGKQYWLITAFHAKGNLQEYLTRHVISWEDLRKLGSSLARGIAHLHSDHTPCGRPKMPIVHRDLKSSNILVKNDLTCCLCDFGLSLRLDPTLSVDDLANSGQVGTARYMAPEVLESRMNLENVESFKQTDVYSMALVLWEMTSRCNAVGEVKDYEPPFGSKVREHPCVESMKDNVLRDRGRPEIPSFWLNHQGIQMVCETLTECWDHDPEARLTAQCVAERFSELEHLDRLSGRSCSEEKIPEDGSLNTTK

effect of a mutation on the interaction | Variant
with no effect | Y87C

Variants of: B1
Details: with tnr14_human TNFRSF14, Q92956
Chain of tnr14_human TNFRSF14, Q92956 (Q92956 whole entry): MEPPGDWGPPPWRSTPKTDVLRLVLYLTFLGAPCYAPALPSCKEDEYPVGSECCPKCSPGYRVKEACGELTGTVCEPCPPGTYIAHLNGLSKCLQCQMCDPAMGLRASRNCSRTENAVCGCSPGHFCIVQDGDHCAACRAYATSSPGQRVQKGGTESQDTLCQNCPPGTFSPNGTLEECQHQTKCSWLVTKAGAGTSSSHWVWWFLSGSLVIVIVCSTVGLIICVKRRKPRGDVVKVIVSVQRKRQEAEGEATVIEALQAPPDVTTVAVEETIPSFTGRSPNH

effect of a mutation on the interaction | Variant
with no effect | Y87C

Variants of: B1
Details: with tsc2_human TSC2, P49815

effect of a mutation on the interaction | Variant
with no effect | Y87C

Variants of: B1
Details: with tshr_human TSHR

effect of a mutation on the interaction | Variant
with no effect | Y87C

Variants of: B1
Details: with vegfa_human VEGFA

effect of a mutation on the interaction | Variant
with no effect | Y87C

Variants of: B1
Details: with vhl_human VHL

effect of a mutation on the interaction | Variant
with no effect | Y87C

Variants of: B1
Details: with wee1_human WEE1, P30291

effect of a mutation on the interaction | Variant
with no effect | Y87C

Variants of: B1
Details: with wwtr1_human WWTR1, Q9GZV5

effect of a mutation on the interaction | Variant
with no effect | Y87C

Variants of: B1
Details: with xpo1_human XPO1, O14980

effect of a mutation on the interaction | Variant
with no effect | Y87C

Variants of: B1
Details: with il7ra_human IL7R

effect of a mutation on the interaction | Variant
increasing interaction strength | Y87C
